Measurements as given in paper PMC5291076, “Analyzing native membrane protein assembly in nanodiscs by combined non-covalent mass spectrometry and synthetic biology” (eLife, 2017).

Legend:
[1] = target: Proteorhodopsin (green variant); assay: native MS; LILBID-MS of the membrane protein in MSP1E3D1 (DMPG) nanodiscs; 50 mM ammonium acetate pH 6.8; anionic mode; laser pulse energy between 9.5 and 23 mJ; unlabeled and (KcsA) 15N, 2H labeled samples
[2] = target: Proteorhodopsin (green variant); assay: native MS; LILBID-MS of PR synthesized in the presence of DH7PC and GDN and purified with 0.1% DH7PC; no nanodiscs
[3] = target: the molecule itself; assay: native MS; LILBID-MS of the membrane protein in MSP1E3D1 (DMPG) nanodiscs; 50 mM ammonium acetate pH 6.8; anionic mode; laser pulse energy between 9.5 and 23 mJ; unlabeled and (KcsA) 15N, 2H labeled samples
[4] = target: the molecule itself; assay: native MS; LILBID-MS of hHv1-VSD in nanodiscs of MSP1D1ΔH5 (19.49 kDa, His6-tag cleaved); unlabeled and 15N, 2H labeled samples

Row | Molecule | stoichiometry N [3] | also measured
1 | Proteorhodopsin (green variant) (natural protein) |  | stoichiometry N [1]: < 6; stoichiometry N [2]: 2
2 | pH-gated potassium channel KcsA (natural protein, in some samples uniformly 15N, 2H isotope labeled, pH-gated potassium channel KcsA; theoretical mass of the construct 21.33 kDa (22.70 kDa labeled); The printed mass (21.33 kDa) is larger than the natural chain, so tags or extra residues beyond the StrepII tag may be present; source: cell-free (CECF, E. coli A19 lysate), co-translationally inserted into nanodiscs, purified (Streptactin)) SALHWRAAGAATVLLVIVLLAGSYLAVLAERGAPGAQLITYPRALWWSVETATTVGYGDLYPVTLWGRLVAVVVMVAGITSFGLVTAALATWFVGREQERRGHFVRHSEKAAEEAYTRTTRALHERFDRLERMLDDNRR | 4 | 
3 | Multidrug transporter EmrE (natural protein, small multidrug transporter EmrE; theoretical mass of the construct 13.00 kDa; source: cell-free (CECF, E. coli A19 lysate), co-translationally inserted into nanodiscs, purified (Streptactin)) MNPYIYLGGAILAEVIGTTLMKFSEGFTRLWPSVGTIICYCASFWLLAQTLAYIPTGIAYAIWSGVGIVLISLLSWGFFGQRLDLPAIIGMMLICAGVLIINLLSRSTPH | 2 | 
4 | Phospho-N-acetylmuramyl-pentapeptide-transferase E.coli (enzyme, E. coli, UniProt P0A6W3 1-360, looked up, MraY translocase of E. coli; theoretical mass of the construct 42.22 kDa; Dimer in DMPG and in DMPC/DMPG nanodiscs, monomer in DMPC nanodiscs; also called Ec-MraY; E. coli MraY; source: cell-free (CECF, E. coli A19 lysate), co-translationally inserted into nanodiscs, purified (Streptactin)) MLVWLAEHLVKYYSGFNVFSYLTFRAIVSLLTALFISLWMGPRMIAHLQKLSFGQVVRNDGPESHFSKRGTPTMGGIMILTAIVISVLLWAYPSNPYVWCVLVVLVGYGVIGFVDDYRKVVRKDTKGLIARWKYFWMSVIALGVAFALYLAGKDTPATQLVVPFFKDVMPQLGLFYILLAYFVIVGTGNAVNLTDGLDGLAIMPTVFVAGGFALVAWATGNMNFASYLHIPYLRHAGELVIVCTAIVGAGLGFLWFNTYPAQVFMGDVGSLALGGALGIIAVLLRQEFLLVIMGGVFVVETLSVILQVGSFKLRGQRIFRMAPIHHHYELKGWPEPRVIVRFWIISLMLVLIGLATLKVR | 2 | 
5 | Phospho-N-acetylmuramyl-pentapeptide-transferase B.subtilis (enzyme, B. subtilis, UniProt Q03521 1-324, looked up, MraY translocase of B. subtilis; theoretical mass of the construct 37.88 kDa; also called Bs-MraY; B. subtilis MraY; source: cell-free (CECF, E. coli A19 lysate), co-translationally inserted into nanodiscs, purified (Streptactin)) MLEQVILFTILMGFLISVLLSPILIPFLRRLKFGQSIREEGPKSHQKKSGTPTMGGVMIILSIIVTTIVMTQKFSEISPEMVLLLFVTLGYGLLGFLDDYIKVVMKRNLGLTSKQKLIGQIIIAVVFYAVYHYYNFATDIRIPGTDLSFDLGWAYFILVLFMLVGGSNAVNLTDGLDGLLSGTAAIAFGAFAILAWNQSQYDVAIFSVAVVGAVLGFLVFNAHPAKVFMGDTGSLALGGAIVTIAILTKLEILLVIIGGVFVIETLSVILQVISFKTTGKRIFKMSPLHHHYELVGWSEWRVVVTFWAAGLLLAVLGIYIEVWL | 2 | 
6 | Human proton channel - voltage sensing domain (domain or fragment, UniProt Q96D96 75-223, looked up, in some samples uniformly 15N, 2H isotope labeled, voltage-sensing domain of the human proton channel Hv1, residues 75-223; lacks the intracellular domain; theoretical mass of the construct 20.80 kDa; Construct in pET15b described in Li et al., 2015; a C-terminal StrepII tag was added here by QuickChange mutagenesis; also called hHv1-VSD; hHv-1-VSD) APAPGPAPRAPLDFRGMLRKLFSSHRFQVIIICLVVLDALLVLAELILDLKIIQPDKNNYAAMVFHYMSITILVFFMMEIIFKLFVFRLEFFHHKFEILDAVVVVVSFILDIVLLFQEHQFEALGLLILLRLWRVARIINGIIISVKTR |  | stoichiometry N [4]: 2
